Reference: the supplement of paper PMC10724198
± gives the standard deviation of the averaged measurements.

Tests used:
[1] = tested on: Saccharomyces cerevisiae; test: protein stability index of tFT-peptide fusion (C-terminal peptide) (PSI (0-1 scale)); higher = more stable (slower turnover); details: genetic background: wild type; temperature: 30 C
[2] = tested on: Saccharomyces cerevisiae; test: as above
Protocol: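 MPS profiling in S. cerevisiae of the tFT-X12 degron library: putative degron peptides plus stable controls, 12 aa, fused to the C-terminus of a sfGFP-mCherry timer. Cells are FACS-sorted into 8 mCherry/sfGFP bins and deep-sequenced. PSI runs from 0 (unstable) to 1 (stable). Backgrounds are wild type, das1Δ and doa10Δ at 30 °C, and wild type, das1Δ, cdc34-1 and cdc53-1 at 37 °C; 2-3 technical replicates each.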

[3] = genetic background: cdc34-1, temperature: 37 C
[4] = genetic background: cdc53-1, temperature: 37 C
[5] = genetic background: das1 deletion, temperature: 30 C
[6] = genetic background: das1 deletion, temperature: 37 C
[7] = genetic background: doa10 deletion, temperature: 30 C
[8] = genetic background: wild type, temperature: 30 C
[9] = genetic background: wild type, temperature: 37 C
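Note: PSI is a weighted mean of sequencing reads over stability bins, variants kept only with over 10 reads, mCherry proximal and sfGFP distal, peptide attached via GGGS linker.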

Row | Sequence | protein stability index [1] | protein stability index [2, 3] | protein stability index [2, 4] | protein stability index [2, 5] | protein stability index [2, 6] | protein stability index [2, 7] | protein stability index [2, 8] | protein stability index [2, 9]
1 | VRIGCSLLFFLP | 0.532 ± 0.051 | 0.661 ± 0.036 | 0.734 ± 0.014 | 0.589 ± 0.0067 | 0.6934 ± 0.0062 | 0.478 ± 0.015 | 0.501 ± 0.015 | 0.6267 ± 0.0046
2 | VRSELHINSFIH | 0.53 ± 0.054 | 0.656 ± 0.0076 | 0.767 ± 0.017 | 0.682 ± 0.017 | 0.741 ± 0.017 | 0.499 ± 0.047 | 0.501 ± 0.015 | 0.681 ± 0.025
3 | VRTFVFLVGYCE | 0.458 ± 0.036 | 0.594 ± 0.032 | 0.62 ± 0.024 | 0.406 ± 0.027 | 0.614 ± 0.023 | 0.393 ± 0.035 | 0.394 ± 0.034 | 0.557 ± 0.04
4 | VRVFSLVVCWVV | 0.414 ± 0.037 | 0.297 ± 0.064 | 0.359 ± 0.0043 | 0.262 ± 0.026 | 0.441 ± 0.0051 | 0.199 ± 0.004 | 0.219 ± 0.028 | 0.367 ± 0.032
5 | VSSSFSVLVLLF | 0.421 ± 0.021 | 0.448 ± 0.017 | 0.545 ± 0.035 | 0.375 ± 0.037 | 0.571 ± 0.013 | 0.317 ± 0.02 | 0.339 ± 0.026 | 0.52 ± 0.035
6 | VTLVIYVLVQLT | 0.188 ± 0.035 | 0.148 ± 0.062 | 0.198 ± 0.11 | 0.156 ± 0.044 | 0.259 ± 0.0037 | 0.123 ± 0.02 | 0.15 ± 0.031 | 0.216 ± 0.037
7 | VTTTWTWTVRLC | 0.15 ± 0.024 | 0.538 ± 0.045 | 0.631 ± 0.016 | 0.54 ± 0.018 | 0.656 ± 0.034 | 0.0752 ± 0.019 | 0.0807 ± 0.024 | 0.149 ± 0.0059
8 | VVAALTPLITVA | 0.261 ± 0.04 | 0.0655 ± 0.023 | 0.084 ± 0.0042 | 0.183 ± 0.021 | 0.202 ± 0.0041 | 0.151 ± 0.011 | 0.179 ± 0.024 | 0.138 ± 0.0061
9 | VVLAFFFWFFVG | 0.365 ± 0.016 | 0.359 ± 0.04 | 0.518 ± 0.028 | 0.383 ± 0.034 | 0.507 ± 0.011 | 0.25 ± 0.0047 | 0.265 ± 0.038 | 0.362 ± 0.01
10 | VVLRCGCLVFIN | 0.134 ± 0.051 | 0.419 ± 0.027 | 0.5767 ± 0.0053 | 0.398 ± 0.023 | 0.6443 ± 0.0057 | 0.0928 ± 0.0026 | 0.105 ± 0.017 | 0.0809 ± 0.0089
11 | VVRMRPRLFSLY | 0.3429 ± 0.0022 | 0.807 ± 0.04 | 0.8659 ± 0.0019 | 0.687 ± 0.047 | 0.816 ± 0.025 | 0.186 ± 0.011 | 0.208 ± 0.0086 | 0.354 ± 0.033
12 | VVTFCCARVTKI | 0.522 ± 0.043 | 0.665 ± 0.048 | 0.6997 ± 0.0057 | 0.622 ± 0.038 | 0.665 ± 0.01 | 0.585 ± 0.026 | 0.571 ± 0.025 | 0.651 ± 0.021
13 | VVTFLCPLVGHV | 0.478 ± 0.019 | 0.527 ± 0.023 | 0.501 ± 0.0074 | 0.372 ± 0.029 | 0.546 ± 0.012 | 0.341 ± 0.017 | 0.381 ± 0.013 | 0.507 ± 0.028
14 | VVWFCGFFFVMV | 0.399 ± 0.032 | 0.386 ± 0.0054 | 0.449 ± 0.029 | 0.356 ± 0.036 | 0.509 ± 0.016 | 0.365 ± 0.031 | 0.325 ± 0.03 | 0.465 ± 0.012
15 | VWCVFHVWSGRL | 0.494 ± 0.029 | 0.49 ± 0.035 | 0.585 ± 0.016 | 0.42 ± 0.023 | 0.6175 ± 0.0012 | 0.38 ± 0.007 | 0.409 ± 0.018 | 0.58 ± 0.012
16 | VWFVFVCAVCVL | 0.273 ± 0.0097 | 0.191 ± 0.029 | 0.298 ± 0.015 | 0.205 ± 0.012 | 0.3464 ± 0.003 | 0.138 ± 0.033 | 0.163 ± 0.023 | 0.271 ± 0.012
17 | VWGLGWLVVGVG | 0.221 ± 0.011 | 0.179 ± 0.0033 | 0.218 ± 0.029 | 0.185 ± 0.023 | 0.284 ± 0.012 | 0.165 ± 0.0044 | 0.179 ± 0.018 | 0.267 ± 0.0082
18 | VWPLAFFLRFFI | 0.288 ± 0.014 | 0.547 ± 0.063 | 0.6021 ± 0.0019 | 0.529 ± 0.017 | 0.682 ± 0.017 | 0.247 ± 0.015 | 0.233 ± 0.013 | 0.3623 ± 0.0036
19 | VWSSSYVPLGVY | 0.398 ± 0.044 | 0.319 ± 0.015 | 0.326 ± 0.066 | 0.275 ± 0.044 | 0.443 ± 0.0067 | 0.231 ± 0.015 | 0.271 ± 0.033 | 0.384 ± 0.013
